Publication PMC3547825 (PLoS Computational Biology, 2013)

Biological target: the molecule itself

B1: wild-type α-hemolysin (WT-HL) (natural protein)
chain: ADSDINIKTGTTDIGSNTTVKTGDLVTYDKENGMHKKVFYSFIDDKNHNKKLLVIRTKGTIAGQYRVYSEEGANKSGLAWPSAFKVQLQLPDNEVAQISDYYPRNSIDTKEYMSTLTYGFNGNVTGDDTGKIGGLIGANVSIGHTLKYVQPDFKTILESPTDKKVGWKVIFNNMVNQNWGPYDRDSWNPVYGNQLFMKTRNGSMKAADNFLDPNKASSLLSSGFSPDFATVITMDRKASKQQTNIDVIYERVRDDYQLHWTSTNWKGTNTKDKWIDRSSERYKIDWEKEEMTN
- stoichiometry N: 7
